Assay [1] has as its target Diaphorase. Briefly: peptide array, 1 uM labeled diaphorase, no FAD.
The target in assay [2] is Diaphorase. In words: peptide array, 10 uM labeled diaphorase, no FAD; detector saturation.
For assay [3], the target named is Diaphorase. Briefly: peptide array, 10 uM diaphorase, binding without FAD / with FAD.
The target of assay [4] is Diaphorase. Briefly: peptide array, 10 uM labeled diaphorase, with FAD.
For assay [5], the target named is Diaphorase. Briefly: peptide array, 1 uM labeled diaphorase, with FAD.
For assay [6], the target named is Diaphorase. In words: peptide array, 1 uM diaphorase, binding without FAD / with FAD.
Assay [7] has as its target Diaphorase. In words: peptide array, 1 uM diaphorase, measured binding without FAD / with FAD.
The target in assay [8] is Diaphorase. Briefly: peptide array, 10 uM labeled diaphorase, no FAD.

Our source for the fluorescence, noFAD/FAD and Meas. ratio (noFAD/FAD) values is patent US20190064177A1, “INCORPORATING COMPETITIVE BINDING INFORMATION INTO MOLECULAR ARRAY ANALYSIS TO GENERATE FUNCTION NETWORKS OF INTERACTIONS” (ARIZONA BOARD OF REGENTS ON BEHALF OF ARIZONA STATE …, priority 2017, published 2019).

With RWRYYWKSEGSG, the fluorescence in assay [1] is 11000; in assay [2] it was over 65500; in assay [4], 51400; in assay [5] it was 4090. Besides, the noFAD/FAD in assay [3] was determined as 1.27; in assay [6], 2.7.

Turning to WRVQAWRPNKVEG, the Meas. ratio (noFAD/FAD) in assay [7] amounted to 2.43.

As to AWVELEYQYVFEG, the Meas. ratio (noFAD/FAD) in assay [7] worked out at 0.74.

For the molecule DANLFGYFKDGGS, in assay [7], the Meas. ratio (noFAD/FAD) turned out to be 0.7.

As for FLQFLGGSG, the Meas. ratio (noFAD/FAD) in assay [7] was 0.87.

For the molecule KEDKVFGFRFDGS, the Meas. ratio (noFAD/FAD) in assay [7] turned out to be 0.7.

Take NHLLEGAFVSEGS: the Meas. ratio (noFAD/FAD) in assay [7] came out at 0.77.

For RWYKNGGSG, the fluorescence in assay [1] came to 10200; in assay [8] it was 64800; in assay [4], 46300; in assay [5], 3660. Also, the values for the noFAD/FAD in assay [3] and in assay [6] were 1.4 and 2.78, respectively.

Take RQRYPKVSGGSG: in assay [7], the Meas. ratio (noFAD/FAD) is 1.71.

Take ARWQQYKFGGSG: in assay [7], the Meas. ratio (noFAD/FAD) was 2.18.

With VLAYKLQVDGSG, in assay [7], the Meas. ratio (noFAD/FAD) came out at 0.68.

In the case of YRYGWQKYGGSG, in assay [7], the Meas. ratio (noFAD/FAD) was determined as 2.43.

For the molecule PRFNWKPYGGSG, in assay [7], the Meas. ratio (noFAD/FAD) was 2.44.

WHLLGWVGYGGSG: in assay [7], the Meas. ratio (noFAD/FAD) was 0.7.

With ALDKLSGLWKHVG, the Meas. ratio (noFAD/FAD) in assay [7] is 0.69.

Regarding YRLNLKHPVGGSG, the fluorescence was 12700 in assay [1], over 65500 in assay [2], 56700 in assay [4] and 4150 in assay [5]. Also, the noFAD/FAD worked out at 1.16 in assay [3] and 3.05 in assay [6].

Turning to PVDFGYQLKVSGS, the Meas. ratio (noFAD/FAD) in assay [7] came out at 0.66.

Take WRPFWKNLGGSG: the Meas. ratio (noFAD/FAD) in assay [7] turned out to be 2.18.

For the molecule FNKVLEYKWLFEG, the Meas. ratio (noFAD/FAD) in assay [7] turned out to be 0.73.

As for RYAYFQHLGGSG, the fluorescence in assay [1] is 13600; in assay [2], over 65500; in assay [4], 64100; in assay [5] it was 4970. In addition, the noFAD/FAD in assay [3] was determined as 1.02; in assay [6], 2.73.

As to YRGAGKNKGGSG, in assay [7], the Meas. ratio (noFAD/FAD) is 1.49.

Turning to YRRFPYFPGGSG, in assay [7], the Meas. ratio (noFAD/FAD) amounted to 1.6.

On to RNWYGGS [RNWYGGSG], for which the fluorescence in assay [1] was 7830; in assay [2], over 65500; in assay [4] it was 48600; in assay [5] it was 2940. For the same molecule, the figures for the noFAD/FAD in assay [3] and in assay [6] were 1.35 and 2.66, respectively.

As to WRSVYVPNGGSG, the Meas. ratio (noFAD/FAD) in assay [7] amounted to 2.35.

Turning to EGFGYLFAHVGGS, the Meas. ratio (noFAD/FAD) in assay [7] came to 0.78.

In the case of FYNFGYQDLEDGS, the Meas. ratio (noFAD/FAD) in assay [7] was 0.75.

Turning to RLYPQGYGGSG, the fluorescence in assay [1] is 11900; in assay [2] it was over 65500; in assay [4] it was 61700; in assay [5] it was 4540. Besides, the noFAD/FAD in assay [3] came to 1.06; in assay [6], 2.62.

Regarding YRFAQYKGQKDGSG, the fluorescence in assay [1] was 4470; in assay [8], 56900; in assay [4] it was 19900; in assay [5], 1600. The values for the noFAD/FAD in assay [3] and in assay [6] were 2.86 and 2.78, respectively.

Take VSWVFGLGHEGGS: the Meas. ratio (noFAD/FAD) in assay [7] came to 0.71.

As to AFNVWQYFEGGSG, the Meas. ratio (noFAD/FAD) in assay [7] was determined as 0.73.

RAQYAQYLFGGSG: the fluorescence in assay [1] is 8720; in assay [2] it was over 65500; in assay [4], 55400; in assay [5] it was 3160. Also, the noFAD/FAD in assay [3] was 1.18; in assay [6], 2.76.

HVYGLNLFDGSG: in assay [7], the Meas. ratio (noFAD/FAD) came out at 0.72.

As to YRWGAKHYGGSG, in assay [7], the Meas. ratio (noFAD/FAD) was 2.06.

YRRPWKFRDGSG: in assay [7], the Meas. ratio (noFAD/FAD) was determined as 1.74.

For the molecule RVLPYHGWKWFSG, the Meas. ratio (noFAD/FAD) in assay [7] came out at 2.45.

Turning to GYHLFEKLYFDGS, the Meas. ratio (noFAD/FAD) in assay [7] was found to be 0.7.

With LFDNVLEFVEDGS, the Meas. ratio (noFAD/FAD) in assay [7] was determined as 0.69.

As to DYFEGQLNHLGGS, the Meas. ratio (noFAD/FAD) in assay [7] worked out at 0.75.

Turning to NRKFYWNAGGSG, in assay [7], the Meas. ratio (noFAD/FAD) was 2.1.

As to YRFPNAQSPGGSG, the fluorescence is 6240 in assay [1], over 65500 in assay [2], 37700 in assay [4] and 2370 in assay [5]. In addition, the noFAD/FAD came out at 1.74 in assay [3] and 2.63 in assay [6].

For RQAYLFGGSG, the fluorescence in assay [1] is 14500; in assay [2] it was over 65500; in assay [4] it was 64000; in assay [5] it was 4480. Also, the noFAD/FAD in assay [3] was found to be 1.02; in assay [6], 3.23.

As for YWRFYANWAQLFG, the Meas. ratio (noFAD/FAD) in assay [7] was found to be 2.56.

On to WRLNPLQFGGSG, for which the Meas. ratio (noFAD/FAD) in assay [7] is 2.54.

With PRSFGYNNVGGSG, the fluorescence in assay [1] was 6840; in assay [2], over 65500; in assay [4], 40500; in assay [5] it was 2530. Also, the noFAD/FAD in assay [3] was 1.62; in assay [6], 2.71.

PQKSNHFHEAQKR: in assay [7], the Meas. ratio (noFAD/FAD) turned out to be 2.41.

As to YQRHQNVFAKSGG, the Meas. ratio (noFAD/FAD) in assay [7] was determined as 2.56.

Turning to RFGQNLPLGGSG, the fluorescence in assay [1] turned out to be 5800; in assay [8] it was 63500; in assay [4], 34700; in assay [5], 2100. For the same molecule, the noFAD/FAD in assay [3] is 1.83; in assay [6] it was 2.76.

On to PVPWRHVNYAHSG, for which the Meas. ratio (noFAD/FAD) in assay [7] turned out to be 0.69.

Turning to SGVLQFFGGSG, the Meas. ratio (noFAD/FAD) in assay [7] came out at 0.7.
